Laboratory results reported in PMC6720793 (Molecules, 2019).

Target: human β2 microglobulin (Homo sapiens, UniProt P61769)
Sequence (P61769 21-119): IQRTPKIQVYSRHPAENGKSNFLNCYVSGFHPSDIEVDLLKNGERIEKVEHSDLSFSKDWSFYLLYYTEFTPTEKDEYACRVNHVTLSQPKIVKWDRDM

B1: CNb1 (VHH)
chain: QVQLQESGGGSVQAGGSLRLSCAASRCWFRQAPGKEREWVARYYADSVKGRFTFSQDNAKNTVYLQMDSLEPEDTATYYCCWGQGTQVTVSS
Kd: 46 nM
